From US20180002379

What was measured:
Assay in all cases: cell_activity
[1] = tested on: ZFN SBS#20505 (synthetic)
[2] = tested on: ZFN SBS#46697 (synthetic)
[3] = tested on: ZFN SBS#46696 (synthetic)
[4] = tested on: ZFN SBS#46693 (synthetic)
[5] = tested on: ZFN SBS#46705 (synthetic)
[6] = tested on: ZFN SBS#8266 (synthetic)
[7] = tested on: ZFN SBS#46698 (synthetic)
[8] = tested on: ZFN SBS#46700 (synthetic)
[9] = pair 46700:46705 at CCR2, GFP 0.05

Question: With “AAACTGCAAAAA (double strand) [CCR2 right half-site]” as the sequence, how does the activity ([1]; pair 8266:20505 at CCR2, K562) read?
Answer: The activity was 5.23 % indel.

Question: And the activity ([2]; pair 46693:46697 at CCR2, no SELEX evidence of binding the CCR2 adenine)?
Answer: The activity was 0.07 % indel.

Question: What about the activity ([3]; pair 46693:46696 at CCR2, background level, no SELEX evidence of binding the CCR2 adenine) of the same sequence?
Answer: The activity was 0.01 % indel.

Question: “AAACTGCAAAAG (double strand) [CCR5 right half-site (20505)]” was tested. Which activity ([1]; pair 8266:20505, K562) did it give?
Answer: Its activity is 29.9 % indel.

Question: With “AGGATGAGGATGACCAGCATGTTGTTGC (double strand) [CCR5 left target]” as the sequence, how does the activity ([4]; pair 46693:46697, K562, GFP 0.01) read?
Answer: Its activity is 10 % indel.

Question: Which results are given for “ATAAACTGCAAAAGGCTGAAGAGCATGA (double strand) [CCR5 right target]”?
Answer: activity ([2]; pair 46693:46697, K562): 10 % indel; activity ([3]; pair 46693:46696, K562, printed 417, 632 of 15162 reads): 4.17 % indel

Question: “CAAAAAGCTGAAGTGCTT (double strand) [CCR2 shifted right half-site]” was tested. Which activity [5, 9] did it give?
Answer: The activity was 0.08 % indel.

Question: With “GATGAGGATGAC (double strand) [CCR5 left half-site (8266)]” as the sequence, how does the activity ([6]; pair 8266:20505, K562) read?
Answer: Its activity is 29.9 % indel.

Question: What does the source list for “GGTCGTCCTCATCTTAAT (double strand) [CCR2 shifted left half-site]”?
Answer: activity ([7]; pair 46698:46705 at CCR2): 0 % indel; activity [8, 9]: 0.08 % indel

Question: “GTCGTCCTCATC (double strand) [CCR2 left half-site]” was tested. Which activity ([6]; pair 8266:20505 at CCR2, K562) did it give?
Answer: The activity was 5.23 % indel.

Question: What about the activity ([4]; pair 46693:46697 at CCR2, p 0.0013) of the same sequence?
Answer: Its activity is 0.07 % indel.

Question: Which activity ([5]; pair 46700:46705, K562, GFP 0.03) does the source give for “TGCAAAAGGCTGAAGAGCATGACTGACA (double strand) [CCR5 shifted right 6F]” here?
Answer: Its activity is 27.4 % indel.

Question: With “TTATCAGGATGAGGATGACCAGCATGTT (double strand) [CCR5 shifted left 4F]” as the sequence, how does the activity ([7]; pair 46698:46705, K562) read?
Answer: Its activity is 23.8 % indel.

Question: For “TTATCAGGATGAGGATGACCAGCATGTT (double strand) [CCR5 shifted left 6F]”, which activity ([8]; pair 46700:46705, K562) is on record?
Answer: Its activity is 27.4 % indel.
